Results as given in doi:10.1101/419051 (bioRxiv, 2018).
Blank lines part the entries; values can stand above or below the binder they belong to.

Biological target: Rpt6 (human, UniProt P62195 1-406)
Experiment: cryo-EM structure

binding result: binds
B1: α3 subunit of the CP (natural protein)
chain: MSRRYDSRTTIFSPEGRLYQVEYAMEAIGHAGTCLGILANDGVLLAAERRNIHKLLDEVFFSEKIYKLNEDMACSVAGITSDANVLTNELRLIAQRYLLQYQEPIPCEQLVTALCDIKQAYTQFGGKRPFGVSLLYIGWDKHYGFQLYQSDPSGNYGGWKATCIGNNSAAAVSMLKQDYKEGEMTLKSALALAIKVLNKTMDVSKLSAEKVEIATLTRENGKTVIRVLKQKEVEQLIKKHEEEEAKAEREKKEKEQKEKDK

binding result: binds
B2: α2 subunit of the CP (natural protein)
chain: MAERGYSFSLTTFSPSGKLVQIEYALAAVAGGAPSVGIKAANGVVLATEKKQKSILYDERSVHKVEPITKHIGLVYSGMGPDYRVLVHRARKLAQQYYLVYQEPIPTAQLVQRVASVMQEYTQSGGVRPFGVSLLICGWNEGRPYLFQSDPSGAYFAWKATAMGKNYVNGKTFLEKRYNEDLELEDAIHTAILTLKESFEGQMTEDNIEVGICNEAGFRRLTPTEVKDYLAAIA
